# Results published in PMC7545097, “Mapping the native interaction surfaces of PREP1 with PBX1 by cross-linking mass-spectrometry and mutagenesis” (Scientific Reports, 2020).
# B1: N-terminal GST-fused wild-type PREP1 [not stated] / PBX1_(1-430), wild-type recombinant [human] (parent complex)
# chain 1: MMATQTLSIDSYQDGQQMQVVTELKTEQDPNCSEPDAEGVSPPPVESQTPMDVDKQAIYRHPLFPLLALLFEKCEQSTQGSEGTTSASFDVDIENFVRKQEKEGKPFFCEDPETDNLMVKAIQVLRIHLLELEKVNELCKDFCSRYIACLKTKMNSETLLSGEPGSPYSPVQSQQIQSAITGTISPQGIVVPASALQQGNVAMATVAGGTVYQPVTVVTPQGQVVTQTLSPGTIRIQNSQLQLQLNQDLSILHQDDGSSKNKRGVLPKHATNVMRSWLFQHIGHPYPTEDEKKQIAAQTNLTLLQVNNWFINARRRILQPMLDSSCSETPKTKKKTAQNRPVQRFWPDSIASGVAQPPPSELTMSEGAVVTITTPVNMNVDSLQSLSSDGATLAVQQVMMAGQSEDESVDSTEEDAGALAPAHISGLVLENSDSLQ
# chain 2: MDEQPRLMHSHAGVGMAGHPGLSQHLQDGAGGTEGEGGRKQDIGDILQQIMTITDQSLDEAQARKHALNCHRMKPALFNVLCEIKEKTVLSIRGAQEEEPTDPQLMRLDNMLLAEGVAGPEKGGGSAAAAAAAAASGGAGSDNSVEHSDYRAKLSQIRQIYHTELEKYEQACNEFTTHVMNLLREQSRTRPISPKEIERMVSIIHRKFSSIQMQLKQSTCEAVMILRSRFLDARRKRRNFNKQATEILNEYFYSHLSNPYPSEEAKEELAKKCGITVSQVSNWFGNKRIRYKKNIGKFQEEANIYAAKTAVTATNVSAHGSQANSPSTPNSAGSSSSFNMSNSGDLFMSVQSLNGDSYQGAQVGANVQSQVDTLRHVISQTGGYSDGLAASQMYSPQGISANGGWQDATTPSSVTSPTEGPGSVHSDTSN
# Variants of: B1
# Assay: TR-FIA; parent: 1; read off a plot
row,ratio to parent,Variant
1,~0.95,chain 1 MMATQTLSIDSYQDGQQMQVVTELKTEQDPNCSEPDAEGVSPPPVESQTPMDVDKQAIYRHPLFPLLALLFEKCEQSTQGSEGTTSASFDVDIENFVRKQEKEGKPFFCEDPETDNLMVKAIQVLRIHLLELEKVNELCKDFCSRYIACLKTKMNSETLLSGEPGSPYSPVQSQQIQSAITGTISPQGIVVPASALQQGNVAMATVAGGTVYQPVTVVTPQGQVVTQTLSPGTIRIQNSQLQLQLNQDLSIAHQDDGSSKNKRGVLPKHATNVMRSWLFQHIGHPYPTEDEKKQIAAQTNLTLLQVNNWFINARRRILQPMLDSSCSETPKTKKKTAQNRPVQRFWPDSIASGVAQPPPSELTMSEGAVVTITTPVNMNVDSLQSLSSDGATLAVQQVMMAGQSEDESVDSTEEDAGALAPAHISGLVLENSDSLQ [chain 1 L252A]
2,~1,chain 1 MMATQTLSIDSYQDGQQMQVVTELKTEQDPNCSEPDAEGVSPPPVESQTPMDVDKQAIYRHPLFPLLALLFEKCEQSTQGSEGTTSASFDVDIENFVRKQEKEGKPFFCEDPETDNLMVKAIQVLRIHLLELEKVNELCKDFCSRYIACLKTKMNSETLLSGEPGSPYSPVQSQQIQSAITGTISPQGIVVPASALQQGNVAMATVAGGTVYQPVTVVTPQGQVVTQTLSPGTIRIQNSQLQLQANQDLSILHQDDGSSKNKRGVLPKHATNVMRSWLFQHIGHPYPTEDEKKQIAAQTNLTLLQVNNWFINARRRILQPMLDSSCSETPKTKKKTAQNRPVQRFWPDSIASGVAQPPPSELTMSEGAVVTITTPVNMNVDSLQSLSSDGATLAVQQVMMAGQSEDESVDSTEEDAGALAPAHISGLVLENSDSLQ [chain 1 L245A]
3,~0.79,chain 1 MMATQTLSIDSYQDGQQMQVVTELKTEQDPNCSEPDAEGVSPPPVESQTPMDVDKQAIYRHPLFPLLALLFEKCEQSTQGSEGTTSASFDVDIENFVRKQEKEGKPFFCEDPETDNLMVKAIQVLRIHLAELEKVNELCKDFCSRYIACLKTKMNSETLLSGEPGSPYSPVQSQQIQSAITGTISPQGIVVPASALQQGNVAMATVAGGTVYQPVTVVTPQGQVVTQTLSPGTIRIQNSQLQLQLNQDLSILHQDDGSSKNKRGVLPKHATNVMRSWLFQHIGHPYPTEDEKKQIAAQTNLTLLQVNNWFINARRRILQPMLDSSCSETPKTKKKTAQNRPVQRFWPDSIASGVAQPPPSELTMSEGAVVTITTPVNMNVDSLQSLSSDGATLAVQQVMMAGQSEDESVDSTEEDAGALAPAHISGLVLENSDSLQ [chain 1 L130A]

# The remaining lines, values behind:
row,Variant,ratio to parent
1,chain 1 MMATQTLSIDSYQDGQQMQVVTELKTEQDPNCSEPDAEGVSPPPVESQTPMDVDKQAIYRHPLFPLLALAFEKCEQSTQGSEGTTSASFDVDIENFVRKQEKEGKPFFCEDPETDNLMVKAIQVLRIHLLELEKVNELCKDFCSRYIACLKTKMNSETLLSGEPGSPYSPVQSQQIQSAITGTISPQGIVVPASALQQGNVAMATVAGGTVYQPVTVVTPQGQVVTQTLSPGTIRIQNSQLQLQLNQDLSILHQDDGSSKNKRGVLPKHATNVMRSWLFQHIGHPYPTEDEKKQIAAQTNLTLLQVNNWFINARRRILQPMLDSSCSETPKTKKKTAQNRPVQRFWPDSIASGVAQPPPSELTMSEGAVVTITTPVNMNVDSLQSLSSDGATLAVQQVMMAGQSEDESVDSTEEDAGALAPAHISGLVLENSDSLQ [chain 1 L70A],~0.53
2,chain 1 MMATQTLSIDSYQDGQQMQVVTELKTEQDPNCSEPDAEGVSPPPVESQTPMDVDKQAIYRHPLFPLLALLFEKCEQSTQGSEGTTSASFDVDIENFVRKQEKEGKPFFCEDPETDNLMVKAIQVLRIHALELEKVNELCKDFCSRYIACLKTKMNSETLLSGEPGSPYSPVQSQQIQSAITGTISPQGIVVPASALQQGNVAMATVAGGTVYQPVTVVTPQGQVVTQTLSPGTIRIQNSQLQLQLNQDLSILHQDDGSSKNKRGVLPKHATNVMRSWLFQHIGHPYPTEDEKKQIAAQTNLTLLQVNNWFINARRRILQPMLDSSCSETPKTKKKTAQNRPVQRFWPDSIASGVAQPPPSELTMSEGAVVTITTPVNMNVDSLQSLSSDGATLAVQQVMMAGQSEDESVDSTEEDAGALAPAHISGLVLENSDSLQ [chain 1 L129A],~0.43
3,chain 1 MMATQTLSIDSYQDGQQMQVVTELKTEQDPNCSEPDAEGVSPPPVESQTPMDVDKQAIYRHPLFPLLALLFEKCEQSTQGSEGTTSASFDVDIENFVRKQEKEGKPFFCEDPETDNLMVKAIQVARIHLLELEKVNELCKDFCSRYIACLKTKMNSETLLSGEPGSPYSPVQSQQIQSAITGTISPQGIVVPASALQQGNVAMATVAGGTVYQPVTVVTPQGQVVTQTLSPGTIRIQNSQLQLQLNQDLSILHQDDGSSKNKRGVLPKHATNVMRSWLFQHIGHPYPTEDEKKQIAAQTNLTLLQVNNWFINARRRILQPMLDSSCSETPKTKKKTAQNRPVQRFWPDSIASGVAQPPPSELTMSEGAVVTITTPVNMNVDSLQSLSSDGATLAVQQVMMAGQSEDESVDSTEEDAGALAPAHISGLVLENSDSLQ [chain 1 L125A],~0.63
4,chain 1 MMATQTLSIDSYQDGQQMQVVTELKTEQDPNCSEPDAEGVSPPPVESQTPMDVDKQAIYRHPLFPALALLFEKCEQSTQGSEGTTSASFDVDIENFVRKQEKEGKPFFCEDPETDNLMVKAIQVLRIHLLELEKVNELCKDFCSRYIACLKTKMNSETLLSGEPGSPYSPVQSQQIQSAITGTISPQGIVVPASALQQGNVAMATVAGGTVYQPVTVVTPQGQVVTQTLSPGTIRIQNSQLQLQLNQDLSILHQDDGSSKNKRGVLPKHATNVMRSWLFQHIGHPYPTEDEKKQIAAQTNLTLLQVNNWFINARRRILQPMLDSSCSETPKTKKKTAQNRPVQRFWPDSIASGVAQPPPSELTMSEGAVVTITTPVNMNVDSLQSLSSDGATLAVQQVMMAGQSEDESVDSTEEDAGALAPAHISGLVLENSDSLQ [chain 1 L66A],~0.59
